Reference: US20210388084A1 (JJP BIOLOGICS SP Z O O, published 2021)

T1: chimeric human/cynomolgus monkey CD89-I (human/cynomolgus monkey chimera, UniProt P24071 22-287)
T1 construct: also called ΔGln22-Lys46 human EC1-CD89; I (22-46)
T1 chain: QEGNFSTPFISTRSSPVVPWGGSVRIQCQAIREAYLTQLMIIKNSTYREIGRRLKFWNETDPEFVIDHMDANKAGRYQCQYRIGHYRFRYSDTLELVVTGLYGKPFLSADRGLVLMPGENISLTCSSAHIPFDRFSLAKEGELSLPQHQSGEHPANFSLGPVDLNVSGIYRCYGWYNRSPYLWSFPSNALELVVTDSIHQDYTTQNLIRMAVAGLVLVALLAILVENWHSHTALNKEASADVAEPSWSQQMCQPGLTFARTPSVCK

T2: chimeric human/cynomolgus monkey CD89-IV (human/cynomolgus monkey chimera, UniProt P24071 22-287)
T2 construct: also called ΔArg97-Gly121 human EC1-CD89
T2 chain: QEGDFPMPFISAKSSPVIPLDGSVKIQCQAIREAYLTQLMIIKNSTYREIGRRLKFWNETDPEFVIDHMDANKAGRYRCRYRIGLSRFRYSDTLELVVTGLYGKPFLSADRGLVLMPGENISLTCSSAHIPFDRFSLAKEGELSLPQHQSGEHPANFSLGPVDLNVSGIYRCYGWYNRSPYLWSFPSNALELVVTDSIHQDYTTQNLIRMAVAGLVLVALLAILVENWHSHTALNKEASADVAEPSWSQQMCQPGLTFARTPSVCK

T3: membrane full-length cynomolgus monkey CD89 (cynomolgus monkey)
T3 construct: also called cynoCD89; cynomolgus EC1-CD89
T3 chain: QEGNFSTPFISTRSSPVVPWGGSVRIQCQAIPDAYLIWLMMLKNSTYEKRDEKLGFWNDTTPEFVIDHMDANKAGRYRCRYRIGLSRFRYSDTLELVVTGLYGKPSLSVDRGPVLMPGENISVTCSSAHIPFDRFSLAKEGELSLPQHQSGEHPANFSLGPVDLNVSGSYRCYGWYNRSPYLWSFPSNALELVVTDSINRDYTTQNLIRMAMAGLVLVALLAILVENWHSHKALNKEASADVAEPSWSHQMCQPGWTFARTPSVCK

T4: chimeric bovine EC1-Fcγ2R/human EC2-CD89 (bovine/human chimera)
T4 chain: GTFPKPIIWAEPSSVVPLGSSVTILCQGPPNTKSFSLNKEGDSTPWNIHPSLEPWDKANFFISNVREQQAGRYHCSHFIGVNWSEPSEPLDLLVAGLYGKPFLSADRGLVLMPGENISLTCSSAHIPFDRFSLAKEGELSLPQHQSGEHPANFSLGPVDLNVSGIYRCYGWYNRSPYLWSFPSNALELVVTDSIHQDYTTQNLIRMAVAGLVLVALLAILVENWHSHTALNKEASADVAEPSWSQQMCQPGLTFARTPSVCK


Key:
[1] = biological target: T1, chimeric human/cynomolgus monkey CD89-I; test: FACS, transiently transfected HEK293F, 10 ug/mL; ++ strong, + intermediate, -/+ weak
[2] = biological target: T2, chimeric human/cynomolgus monkey CD89-IV; test: as above
[3] = biological target: T3, membrane full-length cynomolgus monkey …; test: FACS, transiently transfected HEK293F; - = no binding
Method: After 48 hours, the binding of CD89/IgA blocking mouse anti-human CD89 antibodies to aforementioned chimeric human CD89/cynomolgus monkey CD89 constructs on transfected cells was analyzed by FACS analysis. To this end, transient transfected HEK293F cells were put at 10×10⁶ cells/mL in ice-chilled phosphate-buffered saline containing 0.1% BSA (Sigma)/0.05% NaN₃ (PBS/BSA/NaN₃) supplemented with 50 μg/mL human IgGs (blocking Fcγ receptors; Sigma) for 10 minutes at 4° C. Then, 10 μL/tube (ie, 0.1×10⁶ cells) of these cells were incubated with or without 100 μL purified mouse anti-human CD89 antibody at 10 μg/mL (in PBS/BSA/NaN₃) for 30 minutes at 4° C. […] After extensive washing in PBS/BSA/NaN₃, cells were subsequently incubated with 1:200 diluted PE-conjugated goat anti-mouse IgG Fey-specific antibodies (Jackson ImmunoResearch) for 30 minutes at 4° C. After extensive washing in PBS/BSA/NaN₃, cells were fixed in 2% formaldehyde in PBS/BSA/NaN₃ for 30 minutes at 4° C.

[4] = biological target: T5, membrane-bound full-length human CD89 (human, UniProt P24071 22-287); test: FACS, HEK293F-huCD89, 24 h 37C no NaN3, Ab 10 ug/mL then IgA; competitor non-aggr serum IgA
T5 construct: on stably or transiently transfected HEK293F cells; also called FcalphaRI; huCD89
Method: (§1) After extensive washing in PBS/BSA/NaN₃, 1:200 diluted PE-conjugated streptavidin (Jackson ImmunoResearch) was added, and incubated for 30 minutes at 4° C. After extensive washing in PBS/BSA/NaN₃, cells were fixed in 2% formaldehyde in PBS/BSA/NaN₃ for 30 minutes at 4° C.

[5] = biological target: T5, membrane-bound full-length human CD89; test: FACS, HEK293F-huCD89, unlabeled Ab 10 ug/mL first; competitor MIP8a-PE
Method: (§2) Then, 10 μL/tube (ie, 0.1×10⁶ cells) of these cells were incubated with or without 100 μL purified mouse anti-human CD89 antibody at 10 μg/mL (in PBS/BSA/NaN₃) for 30 minutes at 4° C. […] After extensive washing in PBS/BSA/NaN₃, cells were fixed in 2% formaldehyde in PBS/BSA/NaN₃ for 30 minutes at 4° C.

[6] = biological target: T4, chimeric bovine EC1-Fcγ2R/human EC2-CD89; test: FACS, transiently transfected HEK293F
Method: After 48 hours and/or 72 hours, the binding of CD89/IgA blocking mouse anti-human CD89 antibodies to aforementioned chimeric human/bovine receptors on transfected cells was analyzed by FACS analysis. To this end, transient transfected HEK293F cells were put at 10×10⁶ cells/mL in ice-chilled phosphate-buffered saline containing 0.1% BSA (Sigma)/0.05% NaN₃ (PBS/BSA/NaN₃) supplemented with 50 μg/mL human IgGs (blocking Fcγ receptors; Sigma) for 10 minutes at 4° C. Then, 10 μL/tube (ie, 0.1×10⁶ cells) of these cells were incubated with or without 100 μL purified mouse anti-human CD89 antibody at 10 μg/mL (in PBS/BSA/NaN₃) for 30 minutes at 4° C. […] After extensive washing in PBS/BSA/NaN₃, cells were subsequently incubated with 1:200 diluted PE-conjugated goat anti-mouse IgG Fey-specific antibodies (Jackson ImmunoResearch) for 30 minutes at 4° C. After extensive washing in PBS/BSA/NaN₃, cells were fixed in 2% formaldehyde in PBS/BSA/NaN₃ for 30 minutes at 4° C.

[7] = biological target: T5, membrane-bound full-length human CD89; test: FACS, HEK293F-huCD89, 24 h 37C no NaN3, Ab 10 ug/mL then IgA; competitor heat-aggr serum IgA
Method: as §1

[8] = biological target: T5, membrane-bound full-length human CD89; test: FACS, HEK293F-huCD89, 4C +NaN3, Ab 10 ug/mL then IgA; competitor non-aggr serum IgA
Method: Then, 10 μL/tube (ie, 0.1×10⁶ cells) of these cells were incubated with or without 50 μL purified mouse anti-human CD89 antibody at 20 μg/mL (in PBS/BSA/NaN₃) for 30 minutes at 4° C. […] After extensive washing in PBS/BSA/NaN₃, 1:200 diluted PE-conjugated streptavidin (Jackson ImmunoResearch) was added, and incubated for 30 minutes at 4° C. After extensive washing in PBS/BSA/NaN₃, cells were fixed in 2% formaldehyde in PBS/BSA/NaN₃ for 30 minutes at 4° C.

[9] = biological target: T5, membrane-bound full-length human CD89; test: FACS, HEK293F-huCD89, 4C +NaN3, Ab 10 ug/mL then IgA; competitor heat-aggr serum IgA
Method: To mimic human IgA immune complexes, human (serum-derived) IgA (Bethyl Laboratories) was heated at 63° C. for 30 minutes, and cooled down to RT followed by centrifugation at 4° C. 12000×g for 2 minutes to remove any insoluble protein precipitation.
Then, 10 μL/tube (ie, 0.1×10⁶ cells) of these cells were incubated with or without 50 μL purified mouse anti-human CD89 antibody at 20 μg/mL (in PBS/BSA/NaN₃) for 30 minutes at 4° C.

[10] = biological target: T5, membrane-bound full-length human CD89; test: FACS, HEK293F-huCD89, half-maximum binding
Method: Then, 10 μL/tube (ie, 0.1×10⁶ cells) of these cells were incubated with or without 100 μL titrated (in PBS/BSA/NaN₃) purified chimeric mouse/human anti-human CD89 antibody/tube for 30 minutes at 4° C. […] After extensive washing in PBS/BSA/NaN₃, cells were subsequently incubated with 1:200 diluted PE-conjugated goat anti-human IgG Fey-specific antibodies (Jackson ImmunoResearch) for 30 minutes at 4° C. After extensive washing in PBS/BSA/NaN₃, cells were fixed in 2% formaldehyde in PBS/BSA/NaN₃ for 30 minutes at 4° C.

[11] = biological target: T6, recombinant C-terminal polyhistidine-tagged human (extracellular) CD89 (human, UniProt P24071 22-227); test: ELISA, coated rhuCD89, half-maximum binding
T6 construct: extracellular domain; bought (Sino Biological); also called rhuCD89
Method: After extensive washing with PBS/0.05% Tween 20, plates were blocked with PBS/0.05% Tween 20/1% BSA (Roche) for 1 hour at RT. Subsequently, plates were incubated with 50 μL titrated (in block buffer) purified mouse anti-human CD89 antibody/well for 1 hour at RT. […] After extensive washing in PBS/0.05% Tween 20, binding of antibodies on rhuCD89 was determined with 1:5,000 diluted horseradish peroxidase (HRP)-conjugated goat anti-mouse IgG Fey-specific antibodies (Jackson ImmunoResearch) for 1 hour at RT, followed by a ready-to-use solution of TMB substrate (Invitrogen) for colorimetric detection.
After extensive washing with PBS/0.05% Tween 20, plates were blocked with PBS/0.05% Tween 20/1% BSA (Roche) for 1 hour at RT. Subsequently, plates were incubated with and without 50 μL titrated (in block buffer) purified chimeric mouse/human anti-human CD89 antibody/well for 1 hour at RT. After extensive washing in PBS/0.05% Tween 20, binding of antibodies on rhuCD89 was determined with 1:5,000 diluted horseradish peroxidase (HRP)-conjugated goat anti-human IgG Fey-specific antibodies (Jackson ImmunoResearch) for 1 hour at RT, followed by a ready-to-use solution of TMB substrate (Invitrogen) for colorimetric detection.

[12] = biological target: T5, membrane-bound full-length human CD89; test: FACS, HEK293F-huCD89, 24 h 37C no NaN3, IgA then Ab 10 ug/mL; pre-bound heat-aggr serum IgA
Method: as §1

[13] = biological target: T5, membrane-bound full-length human CD89; test: FACS, HEK293F-huCD89, unlabeled Ab 10 ug/mL first; competitor A3-PE
Method: as §2

[14] = biological target: T5, membrane-bound full-length human CD89; test: FACS, HEK293F-huCD89, 24 h 37C no NaN3, IgA then Ab 10 ug/mL; pre-bound non-aggr serum IgA
Method: as §1

binding result [1]	binding result [2]	binding result [3]	percent IgA binding (remaining) [4] [%]	% blocking of MIP8a-PE binding [5] [%]	binding result [6]	percent IgA binding (remaining) [7] [%]	percent IgA binding [8] [%]	percent IgA binding [9] [%]	EC50 [10] [µg/mL]	EC50 [11] [µg/mL]	percent IgA binding (remaining) [12] [%]	% blocking of A3-PE binding [13] [%]	percent IgA binding (remaining) [14] [%]	Binder
binds	binds	no binding (tested: 10 µg/mL)	0 to 25	< 25	no binding (tested: 10 µg/mL)	0 to 25	0 to 25	0 to 25	0.714	0.052	0 to 25	< 25	0 to 25	mouse anti-human CD89-specific antibody 8F3 (antibody, mouse IgG1, V domains shown) VH: EVQLVESGGGLVKPGGSLKLSCAASGFTFSNYGMSWVRQTPDKRLEWVATMHSGGTYTYYPDNVKGRFTISRDNAKNNLYLQMSSLRSEDTAMYYCARETGLYDGLFDFWGQGTTLTVSS VL: DVQITQSPSYLAASPGETITINCRASKTISKYLAWYQEKPGKTNMLLIYSGSTLQSGVPSRFSGSGSGTDFTLTISSLEPEDLAMYYCQQHDEYPWTFGGGTKLEIK
binds	binds	no binding (tested: 10 µg/mL)	0 to 25	< 25	no binding (tested: 10 µg/mL)	26 to 50	0 to 25	0 to 25	0.26	0.013	26 to 50		0 to 25	mouse anti-human CD89-specific antibody 20B4 (antibody, mouse IgG1, V domains shown) VH: QVQLKESGPGLVAPSQSLSITCTVSGFSLTSYGVHWVRQPPGKGLEWLGIIWAGGSTSYNSALMSRLSISKDNSKSQVFLKMNSLQTDDTAMYYCARDHYDLFAYWGQGTLVTVSA VL: DILMTQSPSSMSVSLGDTVSITCHASQDISRNIGWLQQKPGKSFKGLIYHGTNLEDGVPSRFSGSGSGADYSLTISSLESEDFADYYCVQYAQFPRTFGGGTKLEIK
binds	binds	no binding (tested: 10 µg/mL)	0 to 25	< 25	no binding (tested: 10 µg/mL)	0 to 25	0 to 25	0 to 25	0.637	0.02	0 to 25	< 25	0 to 25	mouse anti-human CD89-specific antibody 10E7 (antibody, mouse IgG1, V domains shown) VH: EVQLVESGGGLVQPGGSLKLSCAASGLTFSSYGMSWVRQTPDKRLELVATINGNGDITYYPDSVKGRFTISRDNAKNTLYLQMSSLKSEDTAMYYCARDYDYDYAMDYWGQGTSVTVSS VL: DIQMTQSTSSLSASLGDSVTISCRASQDIINYLNWYQQKPDGTVKLLIYYTSRLHSGVPSRFSGSGSGTEYSLTVSNLEKEDIATYFCQQGKTLPYTFGGGTKLEIK
